Results as given in patent US20240150443A1, “[…] MEASLES VIRUS” (The Trustees of Columbia University in the City of New York, priority 2021, published 2024).

T1: MeV IC323 F (pre-fusion, on transfected HEK293T cells) (Measles virus strain IC323, UniProt Q786F3 24-550)
T1 construct: whole, on cells; also called pCAGGS-MeV IC323 F; MeV F
T1 sequence: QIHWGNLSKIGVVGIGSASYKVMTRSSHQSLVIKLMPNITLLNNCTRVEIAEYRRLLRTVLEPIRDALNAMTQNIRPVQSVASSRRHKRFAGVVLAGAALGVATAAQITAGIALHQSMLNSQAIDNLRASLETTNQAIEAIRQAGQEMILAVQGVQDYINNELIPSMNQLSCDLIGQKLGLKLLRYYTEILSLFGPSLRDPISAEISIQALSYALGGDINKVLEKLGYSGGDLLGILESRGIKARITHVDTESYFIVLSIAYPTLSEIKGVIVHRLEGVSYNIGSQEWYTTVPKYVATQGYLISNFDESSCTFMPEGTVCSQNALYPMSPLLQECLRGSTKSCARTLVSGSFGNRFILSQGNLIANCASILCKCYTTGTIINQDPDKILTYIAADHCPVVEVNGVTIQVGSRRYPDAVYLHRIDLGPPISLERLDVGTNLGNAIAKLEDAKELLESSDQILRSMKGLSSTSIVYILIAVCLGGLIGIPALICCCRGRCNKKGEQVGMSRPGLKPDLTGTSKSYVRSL

B1: single-chain variable fragment (scFv) derived from anti-MeV F mAb 77.4 (scFv)
scFv: MDVQLQESGPGLVKPSQSLSLTCTVSGYSITSDYAWNWIRQFPGNKLEWMGYISYTLTTGYNPSLKSRISITRDSSKNQFFLQLNSVTTEDTATYYCARSGWLLPYWYFDVWGAGTTVTVSSGGGGSGGGSGGGGSDVQITQSPSYLAASPGETITINCRASKSISKYLAWYQEKPGKTNELLIYSGSTLQSGIPSRFRGSGSGTDFTLTISSLEPEDFAMYYCQQHNEYTLTFGGGTKLELKRHHHHHH
notes: also called mAb 77.4-derived scFv
B2: scFv: single-chain fragment made by fusing VH and VL of mAb 77.4 via G4S linker, 6x-histidine tag; SEQ ID NO:3 (protein)
scFv: B1 scFv
modifications: 6x His tag; single-chain variable fragment antibody

Legend:
[1] = biological target: T1, MeV IC323 F (pre-fusion, on transfected …); experiment: immunofluorescence of transfected HEK293T cells, Alexa 488 anti 6-histidine antibody
[2] = biological target: human parainfluenza virus 3 fusion protein (HPIV3 F) (Human parainfluenza 3 virus, UniProt P06828); conditions: HEK293T, 24 h post-transfection
Procedure: (§1) To assess the specificity of the scFV derived from mAb 77.4 for MeV F, cells expressing either MeV IC323 F or the human parainfluenza virus 3 fusion protein (HPIV3 F) were incubated with the scFv and subjected to immunofluorescence using a fluorescently-labeled Alexa 488 anti 6-histidine antibody (FIG. 3E-F). […] Finally, we assessed whether the scFv blocked cell-cell fusion mediated by either MeV IC323 or G954 H/F fusion complexes (FIG. 3G). For this experiment we used a beta-galactosidase (β-Gal) complementation assay^18 that measures the fusion of cells that express viral envelope glycoproteins (MeV IC323 or G954 H/F) with cells that express the MeV receptor SLAM (FIG. 3G). HEK293T (“target cells”) were transiently transfected with SLAM and the omega reporter subunit of beta-galactosidase, and incubated for the indicated time period in the presence of different concentrations of inhibitors with “effector cells” co-expressing MeV G954 or IC323 H and F together with the alpha reporter subunit of beta-galactosidase. Fusion between the target and effector cells leads to reconstitution of beta-galactosidase activity, which we quantified using the luminescence-based Galacto-Star™ β-Galactosidase Reporter Gene kit (ThermoFisher, US).
(§2) (A) Sequence of the single-chain variable fragment antibody derived from anti-MeV F mAb 77.4. […] Images were obtained using epifluorescent microscopy 48 h post-infection (scale bar=200 μm). (C) HEK293T cells were transfected with either pCAGGS-HPIV3 F or MeV IC323 F and stained using scFv 24 h post-transfection (scale bar=200 μm). (D) Fusion of MeV G954 or IC323 H/F co-expressing cells with SLAM-bearing cells in the presence of scFv at indicated concentrations was quantified at 6 h using a β-galactosidase complementation assay.

[3] = biological target: MeV IC323 H/F fusion complex (Measles virus, UniProt Q786F3); conditions: SLAM-bearing HEK293T target cells, 6 h
Procedure: as §1, §2

[4] = biological target: MeV G954 H/F fusion complex (Measles virus, UniProt Q786F3, H419R/Q139R/R70K); conditions: SLAM-bearing HEK293T target cells, 6 h
Procedure: as §1, §2

MeV WTFb = experiment: In vivo prophylaxis against MeV infection in cotton rats (scFv, intranasal); set-up: species or system cotton rats (Sigmodon hispidus)
Procedure: To assess anti-MeV prophylaxis by the scFv in vivo, we used cotton rats (CR) as an infection model. The scFv antibody construct was administrated via intranasal delivery 24 and 12 h before infection. Four days after infection, the animals were euthanized, and the viral titers in the animals' lungs were quantified.
Cotton rats were infected intranasally with 10^5 TCID50/ml of MeV WTFb. Animals received either the indicated amount of mAb 77.4-derived scFv construct (n=4) or vehicle (n=8) 24 h and 12 h prior to infection. Animals were euthanized 5 days after infection. Lungs were collected and homogenized for TCID50 titration. Results are presented as TCID50/g of lung. Statistical analyses were performed using the Mann-Whitney U-test.
In vivo experiments: Cotton rats. Inbred cotton rats (Sigmodon hispidus) were purchased from Envigo, Inc., Indianapolis. Both male and female cotton rats aged 5 to 7 weeks were used. For infection, 10^5 TCID50 of MeV (strain WTFb) was inoculated intranasally to isofluorane-anesthetised cotton rats in a volume of 100 μl. Treatment was performed in the same way at the indicated time points. Four days after infection, the animals were euthanized using CO2 inhalation, and their lungs were collected and weighed. Lung tissue was minced with scissors and homogenized with a glass dounce homogenizer. Vero-SLAM cells were inoculated with serial 10-fold dilutions of supernatant fluids to assess the presence of infectious virus in 48-well plates using cytopathic effect (CPE) as an endpoint. Plates were scored for CPE microscopically after 7 days, and the TCID50 was calculated as described previously^43.

MeV IC323-EGFP = experiment: Viral spread / plaque enlargement assay in Vero-SLAM cells; type: cell-based, measles virus (MeV)
Procedure: In an effort to identify a more broadly reactive mAb, the neutralizing activity of two other previously identified mAbs, mAb 77.4 and mAb Y503, was assessed in the experiments shown in FIG. 1 I-K. Vero cells expressing the measles receptor SLAM (Vero-SLAM) were infected with MeV IC323-EGFP virus (the expression of fluorescent protein permits tracking of the spread of infection). Six hours post-infection, the cells were treated with serial dilutions of mAbs 77.4 or Y503.
(H-K) VeroSLAM cells were infected with MeV IC323-EGFP at a multiplicity of infection (MOI)=0.001. […] (K) MeV infection in Vero-SLAM cells either untreated (NT) or treated at the indicated dilution of supernatant fluids from hybridomas producing anti F-mAb 77.4 or mAb Y503 were quantified using fluorescent spectroscopy. Data are expressed as relative fluorescence units (RFUs).
The scFv was expressed in eukaryotic cells and purified by affinity purification using a 6×-hisitidine tag (see Materials and Methods). Vero-SLAM cells were infected with MeV IC323-EGFP virus and six hours post-infection, the cells were treated with serial dilutions of the scFv (62.5 μg/ml and 1.95 μg/ml are shown in 3C and CD) and immunofluorescent syncytium formation was measured to quantify viral spread 48 hours post-infection.
Plaque enlargement assay. […] Quantification was determined using fluorescent spectroscopy.

Molecule	binding result [1]	recognition of cells expressing HPIV3 F by scFv [2]	inhibition of cell fusion mediated by IC323 H/F [3]	inhibition of cell fusion mediated by G954 H/F [4]	lung infection (MeV WTFb; 0.5 mg/ml intranasal 24 and 12 h before infection)	lung infection (MeV WTFb; 1 mg/ml intranasal 24 and 12 h before infection)	viral titers in the lungs compared with untreated controls (MeV WTFb; intranasal 24 and 12 h before infection, doses 0.25, 0.5 and 1 mg/ml)	inhibition of viral infection (syncytium formation) (MeV IC323-EGFP; Vero-SLAM, serial dilutions of scFv, 48 hours post-infection)	in vitro potency compared with the full antibody (mAb 77.4) (MeV IC323-EGFP; general statement, assay not specified)
B1	binds	–	–	–	–	–	–	–	–
B2	–	not those expressing HPIV3 F	inhibited cell fusion	inhibited cell fusion	completely inhibited lung infection	completely inhibited lung infection	significantly reduced viral titers in the lungs	clearly inhibited viral infection	less than that of the full antibody
